Data from patent US5885831.

Columns and labels:
[1] = target: LexA-TIM1 (Drosophila melanogaster); assay: yeast two-hybrid, β-galactosidase activity of liquid cultures, LexA-TIM1, 28 C
[2] = target: LexA-TIM1 (Drosophila melanogaster); assay: yeast two-hybrid, β-galactosidase activity of liquid cultures, LexA-TIM1, 35 C
[3] = target: LexA-TIM1 (Drosophila melanogaster); assay: yeast two-hybrid, β-galactosidase activity of liquid cultures, LexA-TIM1, 22 C

VP16-PER^L233-685 (from UniProt P07663)
fold change of the TIM interaction signal (β-galactosidase activity) against the wild type PER fragment [1]: 1.8 fold higher
fold change of the TIM interaction signal (β-galactosidase activity) against the wild type PER fragment [2]: 4.8 fold lower
fold change of the TIM interaction signal (β-galactosidase activity) against the wild type PER fragment [3]: 3.4 fold higher
